Results published in patent publication US20220380471A1.
Numbering of substitutions follows the chain as printed.

Columns and labels:
human B7H3 (human) [1] = molecular target: human B7H3 (human) (UniProt Q5ZPR3); assay: ELISA; row Human; well 1 of 3
HN3-Fc [2] = assay: ELISA; row HN3-Fc; well 3 of 3
hB7H3-His (human) [3] = molecular target: hB7H3-His (human) (UniProt Q5ZPR3); assay: ELISA; row B7H3-his; well 1 of 3
Irrelevant antigen [4] = assay: ELISA; row Irrelevant antigen; well 2 of 3
PD-L1 [5] = assay: ELISA; row PDL1-Fc; well 3 of 3
monkey B7H3-His (monkey) [6] = assay: ELISA; row Monkey; well 2 of 3
mouse B7H3-His (mouse) [7] = molecular target: T1, mouse B7H3-His (mouse) (UniProt Q8VE98); assay: ELISA; row Mouse-2 (mB7H3); well 3 of 3
T1 sequence (looked up): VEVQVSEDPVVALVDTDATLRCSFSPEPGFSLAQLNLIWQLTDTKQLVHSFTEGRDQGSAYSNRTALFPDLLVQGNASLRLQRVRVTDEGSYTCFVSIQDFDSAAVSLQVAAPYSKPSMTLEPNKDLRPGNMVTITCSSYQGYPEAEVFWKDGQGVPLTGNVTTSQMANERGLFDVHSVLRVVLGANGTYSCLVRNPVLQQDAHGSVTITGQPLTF

mouse B7H3-His (mouse) [8] = molecular target: T1, mouse B7H3-His (mouse); assay: ELISA; row Mouse-1 (msB7H3); well 3 of 3
rat B7H3-His (rat) [9] = molecular target: T2, rat B7H3-His (rat) (UniProt Q7TPB4); assay: ELISA; row Rat; well 3 of 3
T2 sequence (looked up): T1 sequence (looked up) with A33R, S62A, N131D, V156L, L214M

HN3-Fc [10] = assay: ELISA; row HN3-Fc; well 2 of 3
mouse B7H3-His (mouse) [11] = molecular target: T1, mouse B7H3-His (mouse); assay: ELISA; row Mouse-2 (mB7H3); well 1 of 3
PD-L1 [12] = assay: ELISA; row PDL1-Fc; well 2 of 3
mouse B7H3-His (mouse) [13] = molecular target: T1, mouse B7H3-His (mouse); assay: ELISA; row Mouse-1 (msB7H3); well 1 of 3
B7H3 R&D [14] = assay: ELISA; row B7H3 R&D; well 3 of 3
monkey B7H3-His (monkey) [15] = assay: ELISA; row Monkey; well 1 of 3
hB7H3-His (human) [16] = molecular target: hB7H3-His (human) (UniProt Q5ZPR3); assay: ELISA; row B7H3-his; well 2 of 3
Irrelevant antigen [17] = assay: ELISA; row Irrelevant antigen; well 3 of 3
Irrelevant antigen [18] = assay: ELISA; row Irrelevant antigen; well 1 of 3
hB7H3-His (human) [19] = molecular target: hB7H3-His (human) (UniProt Q5ZPR3); assay: ELISA; row B7H3-his; well 3 of 3
[20] = molecular target: recombinant human B7H3-Fc protein (human) (UniProt Q5ZPR3); assay: ELISA; row B7H3-Fc; well 3 of 3
human B7H3 (human) [21] = molecular target: human B7H3 (human) (UniProt Q5ZPR3); assay: ELISA; row Human; well 2 of 3
rat B7H3-His (rat) [22] = molecular target: T2, rat B7H3-His (rat); assay: ELISA; row Rat; well 1 of 3
mouse B7H3-His (mouse) [23] = molecular target: T1, mouse B7H3-His (mouse); assay: ELISA; row Mouse-2 (mB7H3); well 2 of 3
HN3-Fc [24] = assay: ELISA; row HN3-Fc; well 1 of 3
B7H3 R&D [25] = assay: ELISA; row B7H3 R&D; well 1 of 3
monkey B7H3-His (monkey) [26] = assay: ELISA; row Monkey; well 3 of 3
mouse B7H3-His (mouse) [27] = molecular target: T1, mouse B7H3-His (mouse); assay: ELISA; row Mouse-1 (msB7H3); well 2 of 3
B7H3 R&D [28] = assay: ELISA; row B7H3 R&D; well 2 of 3
[29] = molecular target: recombinant human B7H3-Fc protein (human) (UniProt Q5ZPR3); assay: ELISA; row B7H3-Fc; well 2 of 3
[30] = molecular target: recombinant human B7H3-Fc protein (human) (UniProt Q5ZPR3); assay: ELISA; row B7H3-Fc; well 1 of 3
human B7H3 (human) [31] = molecular target: human B7H3 (human) (UniProt Q5ZPR3); assay: ELISA; row Human; well 3 of 3
PD-L1 [32] = assay: ELISA; row PDL1-Fc; well 1 of 3
rat B7H3-His (rat) [33] = molecular target: T2, rat B7H3-His (rat); assay: ELISA; row Rat; well 2 of 3

recombinant human B7H3-Fc protein (human), sequence (Q5ZPR3 29-466 limits assumed): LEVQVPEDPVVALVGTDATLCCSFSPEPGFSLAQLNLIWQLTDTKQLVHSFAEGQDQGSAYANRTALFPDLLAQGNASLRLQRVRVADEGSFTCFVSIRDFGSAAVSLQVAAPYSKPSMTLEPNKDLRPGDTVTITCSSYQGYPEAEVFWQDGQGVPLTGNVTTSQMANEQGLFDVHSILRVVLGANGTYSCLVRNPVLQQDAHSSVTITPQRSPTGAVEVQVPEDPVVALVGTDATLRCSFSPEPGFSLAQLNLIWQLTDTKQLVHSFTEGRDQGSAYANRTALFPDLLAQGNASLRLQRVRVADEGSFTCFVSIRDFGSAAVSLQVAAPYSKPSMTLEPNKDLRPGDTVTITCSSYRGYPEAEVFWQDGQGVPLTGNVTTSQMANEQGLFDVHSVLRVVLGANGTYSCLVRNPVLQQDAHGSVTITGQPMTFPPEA
human B7H3 (human), sequence (Q5ZPR3 29-466 limits assumed): as above
hB7H3-His (human), sequence (Q5ZPR3 29-461 limits assumed): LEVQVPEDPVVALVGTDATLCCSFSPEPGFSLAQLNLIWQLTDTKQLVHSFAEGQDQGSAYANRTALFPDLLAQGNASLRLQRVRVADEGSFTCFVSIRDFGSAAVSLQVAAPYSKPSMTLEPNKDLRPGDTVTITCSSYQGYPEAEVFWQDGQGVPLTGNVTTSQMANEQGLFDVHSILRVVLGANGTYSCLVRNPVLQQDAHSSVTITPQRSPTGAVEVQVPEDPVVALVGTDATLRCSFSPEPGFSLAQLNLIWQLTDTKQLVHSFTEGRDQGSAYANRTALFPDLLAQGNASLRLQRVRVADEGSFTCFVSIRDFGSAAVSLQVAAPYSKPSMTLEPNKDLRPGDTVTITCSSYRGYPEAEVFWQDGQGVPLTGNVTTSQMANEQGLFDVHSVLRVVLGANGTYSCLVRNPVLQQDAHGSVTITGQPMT
PD-L1, sequence (Q9NZQ7 19-238): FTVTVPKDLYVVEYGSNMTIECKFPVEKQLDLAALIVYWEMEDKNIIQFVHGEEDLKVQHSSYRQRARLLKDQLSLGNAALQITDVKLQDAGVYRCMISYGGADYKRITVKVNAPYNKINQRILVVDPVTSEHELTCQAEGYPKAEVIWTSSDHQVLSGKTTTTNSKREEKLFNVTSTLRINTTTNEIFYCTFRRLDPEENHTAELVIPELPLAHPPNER

For “commercial anti-human B7H3 hybridoma antibody 376.96”, the ELISA reading (name not given) (human B7H3 (human) [1]) was 1.48, the ELISA reading (name not given) (HN3-Fc [2]) was 0.0521 and the ELISA reading (name not given) (hB7H3-His (human) [3]) was 0.811. It also gave an ELISA reading (name not given) (Irrelevant antigen [4]) of 0.0634, an ELISA reading (name not given) (PD-L1 [5]) of 0.0749 and an ELISA reading (name not given) (monkey B7H3-His (monkey) [6]) of 1.59. For the same substance, the ELISA reading (name not given) (mouse B7H3-His (mouse) [7]) was 0.184, the ELISA reading (name not given) (mouse B7H3-His (mouse) [8]) was 0.133 and the ELISA reading (name not given) (rat B7H3-His (rat) [9]) was 1.06. For the same substance, the ELISA reading (name not given) (HN3-Fc [10]) was 0.0541, the ELISA reading (name not given) (mouse B7H3-His (mouse) [11]) was 0.157 and the ELISA reading (name not given) (PD-L1 [12]) was 0.0812. For the same substance, the ELISA reading (name not given) (mouse B7H3-His (mouse) [13]) was 0.14, the ELISA reading (name not given) (B7H3 R&D [14]) was 1.07 and the ELISA reading (name not given) (monkey B7H3-His (monkey) [15]) was 1.59. For the same substance, the ELISA reading (name not given) (hB7H3-His (human) [16]) was 0.812, the ELISA reading (name not given) (Irrelevant antigen [17]) was 0.0624 and the ELISA reading (name not given) (Irrelevant antigen [18]) was 0.0531. It also gave an ELISA reading (name not given) (hB7H3-His (human) [19]) of 0.813, an ELISA reading (name not given) [20] of 1.59 and an ELISA reading (name not given) (human B7H3 (human) [21]) of 1.57. The ELISA reading (name not given) (rat B7H3-His (rat) [22]) was 0.981, the ELISA reading (name not given) (mouse B7H3-His (mouse) [23]) was 0.145 and the ELISA reading (name not given) (HN3-Fc [24]) was 0.0545. It also gave an ELISA reading (name not given) (B7H3 R&D [25]) of 0.991, an ELISA reading (name not given) (monkey B7H3-His (monkey) [26]) of 1.65 and an ELISA reading (name not given) (mouse B7H3-His (mouse) [27]) of 0.156. The ELISA reading (name not given) (B7H3 R&D [28]) was 0.993, the ELISA reading (name not given) [29] was 1.59 and the ELISA reading (name not given) [30] was 1.61. For the same substance, the ELISA reading (name not given) (human B7H3 (human) [31]) was 1.44, the ELISA reading (name not given) (PD-L1 [32]) was 0.0652 and the ELISA reading (name not given) (rat B7H3-His (rat) [33]) was 1.01.
